Experimental data reported in PMC11526107, “ZC3HAV1 facilitates STING activation and enhances inflammation” (Communications Biology, 2024).

B1: Stimulator of interferon genes (STING), endogenous in mouse peritoneal macrophages (natural protein, UniProt Q3TBT3 1-378, looked up)
chain: MPYSNLHPAIPRPRGHRSKYVALIFLVASLMILWVAKDPPNHTLKYLALHLASHELGLLLKNLCCLAEELCHVQSRYQGSYWKAVRACLGCPIHCMAMILLSSYFYFLQNTADIYLSWMFGLLVLYKSLSMLLGLQSLTPAEVSAVCEEKKLNVAHGLAWSYYIGYLRLILPGLQARIRMFNQLHNNMLSGAGSRRLYILFPLDCGVPDNLSVVDPNIRFRDMLPQQNIDRAGIKNRVYSNSVYEILENGQPAGVCILEYATPLQTLFAMSQDAKAGFSREDRLEQAKLFCRTLEEILEDVPESRNNCRLIVYQEPTDGNSFSLSQEVLRHIRQEEKEEVTMNAPMTSVAPPPSVLSQEPRLLISGMDQPLPLRTDLI
notes: mouse STING, endogenous; also called TMEM173; MITA; source: endogenous, mouse peritoneal macrophage lysate
B2: exogenous STING in HEK293T cells (native PAGE, Fig. 3i) (natural protein, UniProt Q3TBT3 1-378, looked up)
chain: B1 chain
notes: Probably the same construct as m9 or m10; the text and legend say only 'the indicated plasmids'; source: HEK293T, transfected, in lysate

How the values were obtained:
[1] = target: the molecule itself; experiment: native gel or EMSA; native PAGE (7% gel, no SDS, sodium deoxycholate in the cathode buffer) and immunoblot of lysates of mouse peritoneal macrophages after HSV-1, ISD or cGAMP; WT against Zc3hav1^-/- or Zc3hav1 siRNA (dimer and oligomer decreased)
[2] = target: the molecule itself; experiment: native gel or EMSA; native PAGE and immunoblot of lysates of HEK293T cells transfected with STING with or without ZAPS or ZAPL, stimulated with DMXAA

| Protein | stoichiometry N [1] | stoichiometry N [2] |
| --- | --- | --- |
| B1 | 2 |  |
| B2 |  | 2 |
